In patent US20260028391A1:
Residue numbers refer to the chain shown, from its start.

B1: MPK194-v2 (antibody, V domains shown)
VH: QVQLVESGGGVVQPGRSLRLSCVASGFTFSNYPLHWVRQAPGKGLQWVAVISYDGSENYYADSVKGRFTISRDNSKSTLYLQMNSLRPEDTAIYYCARSKVAGGSYYFDYWGQGTLVPVSS
VL: SYELTQPPSVSVAPGQAARVSCGGNNIGSQYVQWYQQKPGQAPVLVIYDDDDRPSGIPERFSGSNSGSTATLTISRVEAGDEADYYCQVWDKSNHVVVFGGGTKLTVL
B2: MPK170 (antibody, V domains shown)
VH: QVQLVQSGAEVKKPGESLKISCKGSGYSFINYWIGWVRQMPGKGLEWMGIIYPFDSDTKYSPSFQGHVTISADKSINTAYVQWSSLKASDTAIYYCARFTFGIAVSTDDVSGEGQAFDLWGQGTRVTVSS
VL: EIVMMQSPATLSVSPGERATLSCRASQSVAGNLAWYQQRPGQAPRLLIYAGSARATGVPARFSGSGSETEFTLTISSLQSEDFAVYYCHHYSNWPQAFGQGTRLDIK
B3: MPK201 (antibody, V domains shown)
VH: EVQLVQSGAEVKKPGESLKISCQGSGYSFINYWIGWVRQKPGKGLEWMGIIYPFDSETKYSPSFQGHVTFSADKSINTAYVQWSSLRASDTAMYYCARFTFGLAVTTADVSGEGQAFEIWGQGTMVTVSS
VL: B2 VL with I48V, A50G, G51A, A53T, T56S, N93D
B4: MPK165 (antibody, V domains shown)
VH: EVQLVQSGAEVKKPGESLKISCRASGYSFNNYWVGWVRQVPGKGLEWMGFIYPFDSDTKYSPSFEGHVTISADKSIDTAYLQWSSLRSSDTAIYYCARFTFGIALVAGDVTGGGQAFEVWGQGTLVTVSS
VL: B2 VL with M5T, N32K, L47I, G51A, A53T, T56A
B5: MPK171-v2 (antibody, V domains shown)
VH: B2 VH with I93M, S106V, Q115H, L119I, R125M
VL: B2 VL with E1Q, I2S, M4L, M5T, A50G, G51A, A53T, H89Q, H90Q
B6: MPK193 (antibody, V domains shown)
VH: EVQLVQSGAEVKKPGESLKISCEASGYSFNNYWIGWVRQMPGKGLEWMGIIYPFDSDTKYSPSFQGHVTISADKSINTAYLQWSSLKASDTAMYFCARFTFGIVLVAGDVTGEGHAFDVWGRGTMVTVTS
VL: B2 VL with A9V, E17G, A50G, G51A, A53T
B7: MPK198 (antibody, V domains shown)
VH: B2 VH with Q1E, I93M, S106V, L119I, R125M
VL: B2 VL with A50G, G51A, A53T, H89Q, H90Q
B8: MPK178 (antibody, V domains shown)
VH: B4 VH with N30V, V34I, K59Q, E65Q, D77N, S88A, T127S
VL: B2 VL with E1D, M5T, A9V, G51A, A53T
B9: MPK188 (antibody, V domains shown)
VH: EVQLVQSGAEVKKPGESLKISCQASGYSFINYWIGWVRQMPGKGLEWMGIIYPFDSDTNYSPSFQGLVTISADKSINTAYLQWRSLKASDTAMYYCARFTFGIALVAGDVNGEGHAFDIWGQGTVVTVSS
VL: B2 VL with M5T, R18S, S28G, A50G, G51T, A53T
B10: MPK175 (antibody, V domains shown)
VH: QVQLVQSGAEVKKPGESLKISCQASGYSFINYWIGWVRQKPGKGLEWMGIIYPFDSETKYSPSFQGHVTISADRFTNTAYVQWTSLKASDTAIYYCARFTFGLAVVAGGLSDDGQAFDIWGQGTRVTVSS
VL: B2 VL with M4L, M5T, G31A, A43T, A50G, G51A, A53T, S80P, N93D
B11: MPK168 (antibody, V domains shown)
VH: EVQLVQSGAEVKKPGESLKISCQVSGYSFVNYWIGWVRQVPGKGLEWMGLIYPFDSDTQYSPSFQGHVTISADTSITTAYLQWSSLQASDTATYYCARFTFGLALVTAGLTDDGQAFDFWGQGTVVTVSS
VL: B2 VL with S26T, Q27E, N32K, A43T, A50G, G51A, H89Q, H90Q, N93T, Q96H
B12: MPK186 (antibody, V domains shown)
VH: B2 VH with K23Q, D57E, I93M, S106V, S111Y, G114A, A116G, L119I, R125M
VL: B2 VL with E1D, M5T, S7T, A30D, A50G, G51A, A53T, H89Q
B13: MPK189 (antibody, V domains shown)
VH: B2 VH with I93M, S106V, G112D, Q115H, L119I, R125M
VL: B2 VL with A50G, G51A, A53T, H89Q, H90Q
B14: MPK203 (antibody, V domains shown)
VH: EVQLVQSGPQVKKPGAAVKVSCKASGFTFTDTTVNWVRQTRGQRLEWMGWIAVGSGTTNYAQKFRDRVTISRDTSTDTAYMELGGLTHDDTAVYYCTTEASRTWFVQTSPFVGFDPWGQGTLVTVSS
VL: EIVLTQSPGTLSLSPGERATLSCRASQSVSSSYFAWYQQKPGQTPRVLIYGASNRAPDIPDRFSGSGSGTDFILTISRLEPEDFAIYYCQHYGSSPTFGQGTKVEIK
B15: MPK180 (antibody, V domains shown)
VH: QVQLVQSGAEVKKPGESLRISCKASGYSFASYWIGWVRQKPGKGPEWMGIIFPNDSDTEYSPSFEGQVSISADKSTSTVHLQWGSLKASDTAVYYCGRMYYLGALETWGQGTMVTVSS
VL: AIRMTQSPSSLSASVGDRVTIVCQASHDISNFLNWYQQRPGQAPKLLIYDASFLETGVPSRFSGSGSGTYFTLTISSLQPEDFATYYCQRYDNRFFTFGPGTKVDIK
B16: MPK176 (antibody, V domains shown)
VH: QVQLVQSGAEVKKPGASVRVSCKASGYTLTAYGISWVRQAPGQGLEWMGWISPKHGNTHYAQRFQGRVTMTTDTSTSTAYMELRSLRPDDTAVYFCAREGVDIMAVPWYFDYWGQGTLVAVSS
VL: SYELTQPPSVSVAPGQTARISCGGNNIGSKSVHWYQQKPGQAPVVVVYDDSDRPSGIPERFSGSNSGNTATLTISGVEAGDEADYFCQVWDSATDHWVFGGGTKLTVL
B17: MPK161-v1 (antibody, V domains shown)
VH: EVQLVQSGVEAKKPGESLKISCRASGYSFVNFWIGWVRQVPGKGLEWMGFIYPFDSDTKYGPSFEGHVIISADKSTNTAYLEWRSLRASDSAMYYCARFTFGIALVAGDVTGGGQAFEVWGQGTLVSVSS
VL: AIWMTQSPSTLSASVGDRVTVTCRASLSIGTWLAWYQHKPGKAPKFLIYKASSLESGVPSRFSGSGSGTEFTLTISSLQPDDFATYYCQQYDSYPFTFGGGTKVEIK
B18: MPK161-v2 (antibody, V domains shown)
VH: B17 VH
VL: B2 VL with E17D, G51A, A53T
B19: MPK163 (antibody, V domains shown)
VH: EVQLVQSGAEVKKPGESLKMSCKTSGYSFRSYWIAWVRQRPGKGLEWMGIIWPGDSDVRYGPSFQGQVTISADRSTNTAYLQWSSLKASDTAIYWCARQNYDFWSGHSLGTGADYYYGMDVWGQGTTVTVSS
VL: SSELTQPPSASGTPGQRVTISCSGSSSNIGRNIVHWYQHVPGTAPKLLIYNNDERPSGVPDRFSGSKSGTSASLAISGLQSEDEADYYCTVWDDSLNGGVFGGGTKVTVL
B20: MPK173 (antibody, V domains shown)
VH: QVQLVQSGAEVRKPGASVKVSCRASGYTFSNFGITWVRQAPGQGLEWMGWISAYNGNTKSAQKFQDRVTMTTDTTTSTAYMELRSLRSDDTAVYYCARDTPSSDGAALLDYWGQGTLVTVSS
VL: DIVMTQTPLSLPVTLGQPASISCRSSQSLVYSDGNTYLSWFQQRPGQSPRRLIYKVSNRDSGVPDRFSGSGSGTYFTLKINRVEAEDVGVYYCMQSKYWLTFGQGTKVEIK
B21: MPK179-v4 (antibody, V domains shown)
VH: QVQLVQSRAEVKKPGESLKISCRASGYSFINYWIGWVRQMPGKGLEWMGIIYPFDSDTKYSPSFEGHVTISADKSINTAYVQWSSLKASDTAIYYCARFTFGIALVAGDVGGEGHAFDIWGQGTLVTVSS
VL: DIVMTQSPSSLSASVGDRVTITCRASQTISTYLNWYQQKPGKAPKLLIYAASRLQSGVPSRFSGSGSGTDFTLTISSLQPEDFATYFCQQSYNAPPFTFGPGTKVDIR
B22: MPK187 (antibody, V domains shown)
VH: QVQLVQSGAEVKKPGASVKVSCKTSGYYFNDYFIHWVRHAPGQGLEWMGWVNPLSGATVYAQKFQGWVTLTRDTSINTAYMELTRLTSNDTAMYYCATGALFWTGPTYWGQGTPVTVSA
VL: EIVLTQSPATLSLFPGERATLSCRTSQFVSNNLAWYQQRPGQAPRLLIYDASSRASGTPGRFSASGSGTDFTLTVSSLETEDFAIYYCQHRSNWPPGITFGPGTRVDIR
B23: MPK197 (antibody, V domains shown)
VH: B22 VH with M93L
VL: B22 VL with L4M, T5M, F14S, T25A, F28S, V29I, R39K, P40T, I108V

Target: fusion glycoprotein of the RSV used in the neutralization assay of Example 1 (respiratory syncytial virus (strain not stated))
Test: cell-based or functional assay

| RSV Neutralization - IC50 [ng/mL] | Binder |
| --- | --- |
| 2.6 | B1 |
| 1.1 | B2 |
| 2.4 | B3 |
| 1 | B4 |
| 1 | B5 |
| 1 | B6 |
| 1.2 | B7 |
| 1 | B8 |
| 1 | B9 |
| 1.6 | B10 |
| 1.3 | B11 |
| 1.2 | B12 |
| 1.2 | B13 |
| 2 | B14 |
| 1.5 | B15 |
| 4.2 | B16 |
| 2.8 | B17 |
| 1.1 | B18 |
| 1.4 | B19 |
| 10.2 | B20 |
| 6.6 | B21 |
| 9.1 | B22 |
| 14.7 | B23 |
